Test results taken from publication PMC10491584, “Structural convergence endows nuclear transport receptor Kap114p with a transcriptional repressor function toward TATA-binding protein” (Nature Communications, 2023).
Where “and” joins values, the source holds several entries; their conditions need not be identical. Equal entries are not always repeated.

How the values were obtained:
Kap114pΔY933 = biological target: T1, Kap114pΔY933 (S. cerevisiae, UniProt P53067 1-1004, ΔY933); assay: ITC; Kap114p (wild type or mutant) 50 uM in the sample cell, partner 500 uM in the syringe; 25 °C; 20 mM HEPES pH 7.4, 150 mM NaCl; triplicate; settings: both partners purified
T1 construct: Kap114p, S. cerevisiae, full length with residue Y933 deleted; also called Kap114p(DY933); source: E. coli (Rosetta strain), purified (GST resin, MonoQ, Superdex 200)
T1 sequence (looked up): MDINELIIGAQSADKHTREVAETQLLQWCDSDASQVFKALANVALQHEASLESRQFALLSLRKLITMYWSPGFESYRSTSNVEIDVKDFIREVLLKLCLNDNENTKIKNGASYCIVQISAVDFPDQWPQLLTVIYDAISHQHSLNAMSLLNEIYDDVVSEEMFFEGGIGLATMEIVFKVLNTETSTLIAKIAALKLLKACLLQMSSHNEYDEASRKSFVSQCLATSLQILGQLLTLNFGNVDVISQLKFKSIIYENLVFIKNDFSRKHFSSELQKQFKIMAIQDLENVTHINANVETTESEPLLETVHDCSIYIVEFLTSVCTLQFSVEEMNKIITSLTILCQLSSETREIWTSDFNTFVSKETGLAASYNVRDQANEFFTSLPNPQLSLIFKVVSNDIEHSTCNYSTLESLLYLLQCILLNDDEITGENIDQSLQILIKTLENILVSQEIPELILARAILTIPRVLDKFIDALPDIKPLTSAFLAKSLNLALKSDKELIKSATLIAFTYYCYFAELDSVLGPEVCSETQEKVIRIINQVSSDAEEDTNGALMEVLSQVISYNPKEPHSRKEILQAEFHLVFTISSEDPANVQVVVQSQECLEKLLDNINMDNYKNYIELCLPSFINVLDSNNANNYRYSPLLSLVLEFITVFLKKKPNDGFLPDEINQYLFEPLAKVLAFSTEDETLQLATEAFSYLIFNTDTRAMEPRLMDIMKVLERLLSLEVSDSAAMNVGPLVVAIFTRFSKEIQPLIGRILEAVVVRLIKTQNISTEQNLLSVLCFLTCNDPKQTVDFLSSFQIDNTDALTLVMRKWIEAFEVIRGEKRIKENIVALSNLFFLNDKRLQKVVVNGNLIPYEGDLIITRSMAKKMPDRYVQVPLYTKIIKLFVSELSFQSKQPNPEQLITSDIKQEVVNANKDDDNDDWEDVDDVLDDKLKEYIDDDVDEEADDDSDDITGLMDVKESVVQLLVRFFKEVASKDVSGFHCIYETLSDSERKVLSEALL

Kap114p = biological target: T2, Kap114p (S. cerevisiae, UniProt P53067 1-1004); assay: as above; settings: both partners purified
T2 construct: Kap114p, S. cerevisiae, full length, amplified from total genomic DNA; also called wild type Kap114p; source: E. coli (Rosetta strain), purified (GST resin, MonoQ, Superdex 200)
T2 sequence (looked up): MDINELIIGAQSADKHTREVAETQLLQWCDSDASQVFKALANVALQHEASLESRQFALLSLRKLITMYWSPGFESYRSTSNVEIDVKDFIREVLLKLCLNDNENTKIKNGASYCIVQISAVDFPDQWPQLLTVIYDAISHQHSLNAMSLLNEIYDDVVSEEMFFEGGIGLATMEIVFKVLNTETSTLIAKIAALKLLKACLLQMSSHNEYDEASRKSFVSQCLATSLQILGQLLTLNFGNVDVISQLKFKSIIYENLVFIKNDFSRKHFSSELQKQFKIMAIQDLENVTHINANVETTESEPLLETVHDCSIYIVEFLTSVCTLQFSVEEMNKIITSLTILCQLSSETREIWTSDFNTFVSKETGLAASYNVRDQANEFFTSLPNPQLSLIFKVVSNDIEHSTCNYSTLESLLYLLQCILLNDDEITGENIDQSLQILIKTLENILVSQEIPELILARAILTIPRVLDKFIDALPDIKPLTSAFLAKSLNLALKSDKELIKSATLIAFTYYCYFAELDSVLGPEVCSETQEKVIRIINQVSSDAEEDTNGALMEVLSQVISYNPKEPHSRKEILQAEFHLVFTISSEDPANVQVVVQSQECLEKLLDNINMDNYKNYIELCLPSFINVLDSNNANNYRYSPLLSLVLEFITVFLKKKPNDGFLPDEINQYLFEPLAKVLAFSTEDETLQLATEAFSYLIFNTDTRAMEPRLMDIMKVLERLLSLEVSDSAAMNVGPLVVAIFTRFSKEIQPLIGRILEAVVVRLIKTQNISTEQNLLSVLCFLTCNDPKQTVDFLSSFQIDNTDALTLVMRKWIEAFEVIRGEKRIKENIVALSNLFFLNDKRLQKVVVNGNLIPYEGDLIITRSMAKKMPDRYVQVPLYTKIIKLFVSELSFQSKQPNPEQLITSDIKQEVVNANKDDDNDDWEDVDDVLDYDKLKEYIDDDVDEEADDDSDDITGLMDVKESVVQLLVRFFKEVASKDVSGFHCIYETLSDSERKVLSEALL

Ka (Kap114pΔY933): 1.91e+08 M⁻¹ and 1.5e+08 M⁻¹ and 8.48e+07 M⁻¹
Kd (Kap114pΔY933): 7.7 nM
Ka (Kap114p): 9.85e+08 M⁻¹ and 6.92e+08 M⁻¹ and 9.37e+08 M⁻¹
B1: core domain of yTBP (a.a. 61-240) (domain or fragment, S. cerevisiae, UniProt P13393 61-240, looked up)
chain: SGIVPTLQNIVATVTLGCRLDLKTVALHARNAEYNPKRFAAVIMRIREPKTTALIFASGKMVVTGAKSEDDSKLASRKYARIIQKIGFAAKFTDFKIQNIVGSCDVKFPIRLEGLAFSHGTFSSYEPELFPGLIYRMVKPKIVLLIFVSGKIVLTGAKQREEIYQAFEAIYPVLSEFRKM
notes: 61-240; also called yTBP^C; yTBPc; source: E. coli (Rosetta strain), purified (Ni-NTA, HiTrap SP, Superdex 75); not shown: 6xHis, N-terminal, cleaved
